In series [1] the target is T1, N NTD-LKR-CTD (SARS-CoV-2, UniProt P0DTC9 44-369). Kind of series: fluorescence polarization.
Series [2] deals with T2, N WT (SARS-CoV-2, UniProt P0DTC9 1-419). The series can be described thus: fluorescence polarization.
The target of a further series is N NTD-LKR-CTD-Carm (SARS-CoV-2, UniProt P0DTC9 44-419). The series can be described thus: fluorescence polarization.
The target of a further series is N NTD-LKR (SARS-CoV-2, UniProt P0DTC9 44-247). Kind of series: fluorescence polarization. (In fluorescence polarisation assays a small probe gives low polarisation when free and higher when bound to something large.)
Series [3] concerns the target T3, N NTD (SARS-CoV-2, UniProt P0DTC9 44-176). The series can be described thus: fluorescence polarization.
In series [4] the target is T4, N CTD (SARS-CoV-2, UniProt P0DTC9 248-369). The series can be described thus: fluorescence polarization.
In a further series the target is N NTD;N LKR-CTD (SARS-CoV-2;SARS-CoV-2, UniProt P0DTC9;P0DTC9 44-176;177-369, |). The series can be described thus: fluorescence polarization.
The next series has as its target N NTD-LKR;N CTD (SARS-CoV-2;SARS-CoV-2, UniProt P0DTC9;P0DTC9 44-247;248-369, |). Kind of series: fluorescence polarization.
For series [5], the target named is T4, N CTD. Kind of series: fluorescence polarization. The source holds these as a separate data set.
Another series deals with N LKR-CTD (SARS-CoV-2, UniProt P0DTC9 177-369). Kind of series: fluorescence polarization.
Series [6] has as its target T1, N NTD-LKR-CTD. The series can be described thus: fluorescence anisotropy.
The target in series [7] is T2, N WT. The series can be described thus: fluorescence anisotropy.
For series [8], the target named is T1, N NTD-LKR-CTD. The series can be described thus: fluorescence polarization. The source holds these as a separate data set.
Series [9] addresses T3, N NTD. Kind of series: fluorescence polarization. The source holds these as a separate data set.

Values joined by “and” are separate entries in the source; they are usually repeats but may differ in a detail not shown here. Identical values can stand only once. Like-named read-outs stand apart in the source and are kept apart here.

B1: 19-nt slRNA (structured_RNA)
RNA: GGAAGAUUAAUAAUUUUCC
As for B1, the equilibrium dissociation constant (Kd) (in general, a measure of binding affinity in units of concentration) in the series with N NTD-LKR-CTD [1] is 220 ± 20 nM; in the series with N WT [2] it was 51 ± 4 nM; with N NTD-LKR-CTD-Carm it was 100 ± 10 nM; with N NTD-LKR, 2500 nM and 3000 nM; in the series with N NTD [3], 124000 ± 84000 nM; with N CTD [4], 65000 ± 44000 nM.

B2: 20-nt ssRNA (ssRNA)
RNA: UUUCACCUCCCUUUCAGUUU
With B2, the Kd in the series with N NTD;N LKR-CTD is 720 ± 90 nM; with N NTD-LKR;N CTD it was 440 ± 40 nM; with N CTD [5], 13000 ± 5000 nM; in the series with N WT [2], 7 ± 1 nM; with N NTD-LKR-CTD-Carm, 6 ± 2 nM; with N NTD-LKR it was 500 ± 80 nM. The equilibrium dissociation constant (Kd) with N LKR-CTD came out at 350 ± 40 nM; with N NTD-LKR-CTD [6], 6 ± 2 nM; with N WT [7], 7 ± 1 nM; in the series with N NTD-LKR-CTD [8] it was 6 ± 2 nM; with N NTD [9], 16000 ± 12000 nM.

The values are drawn from PMC8168301.
